Consider 83 variants from the RNAGym collection of RNA variant scans (doi:10.1073/pnas.2313332121).

Fewer inactive variants are shown than the library holds.

The chains are these.
B1: TPR 5TU (parent)
chain: GGAUCUUCUCGAUCUAACAAAAAAGACAAAUCUGCCACAAAGCUUGAGAGCAUCUUCGGAUGCAGAGGCGGCAGCCUUCGGUGGCGCGAUAGCGCCAACGUUCUCAACUAUGACACGCAAAACGCGUGCUCCGUUGAAUGGAGUUUAUCAUG

In the data set the parent is B1. In words: polymerase ribozyme fitness, log enrichment relative to wild type (log ratio); higher = more active; in vitro selection for triplet polymerase activity. The method, boiled down: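 In triplicate, a single round of in vitro selection was run on each mutant library, PCR-built and transcribed, covering one subunit of a heterodimeric triplet polymerase ribozyme. Frozen incubation at −7 °C followed annealing with a biotinylated primer, partner subunit and triplets, and extended constructs were then gel-excised, streptavidin-captured and taken through RT-PCR. Fitness is the logarithm of genotype enrichment over wild-type enrichment, from inverse-variance-weighted replicate averages of Illumina-sequenced inputs and outputs. […] only genotypes with ≥10 input reads and ≥1 read per output were kept.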
In the case of C18U G25U G42C A73U G83U C93U A106G A121C U144A, the “polymerase ribozyme fitness (log ratio)” value was at most -4.2.
Turning to C18U G34A G48U C75U G94C G141U, the “polymerase ribozyme fitness (log ratio)” value was at most -4.2.
C18U C35U G58U G80C C85U: the “polymerase ribozyme fitness (log ratio)” value is at most -4.2.
Turning to A17U C54G C96U, the “polymerase ribozyme fitness (log ratio)” value is -2.08.
For the variant C18U G62A G67A U77G C87A U101C C123U G136A, the “polymerase ribozyme fitness (log ratio)” value was at most -4.2.
To C18U C87U C99U A119G C125G U135G belongs at most -4.2; to A19C A21C A26C U44A C57A U61A G68A G86A C118U, at most -4.2; to C18G A41U A47C A49G G86A U104G, -3.44.
C18U A20G C87G U102G: the “polymerase ribozyme fitness (log ratio)” value was at most -4.2.
As to A19C A20C U148A, the “polymerase ribozyme fitness (log ratio)” value was -3.05.
To A17U U33G A52C belongs at most -4.2.
On to C18G A28U A29U A66G G67C C96U A106C, for which the “polymerase ribozyme fitness (log ratio)” value is at most -4.2.
Then C18G G59U G84U, with -2.51; and C18U U44A G50A A52U G74A A91U C105G A106G C129G, with at most -4.2.
As to A19C G86A, the “polymerase ribozyme fitness (log ratio)” value was -0.455.
As to A17U U33A U45A C57G G70C C87A A98U, the “polymerase ribozyme fitness (log ratio)” value is at most -4.2.
With A19C A29U C54G C108U, the “polymerase ribozyme fitness (log ratio)” value was at most -4.2.
As for C18U G84A, the “polymerase ribozyme fitness (log ratio)” value is -0.579.
As for C18U A40G, the “polymerase ribozyme fitness (log ratio)” value was -2.32.
A19C C32U A49G G59U: the “polymerase ribozyme fitness (log ratio)” value is at most -4.2.
In the case of C18G G84C G126U, the “polymerase ribozyme fitness (log ratio)” value is -2.27.
Then C18U A19G, with -1.03; and A19C G80A C85G, with -0.89; and C18U A26G G58A C87A A97U G133A, with at most -4.2.
For C18G U53A U139C, the “polymerase ribozyme fitness (log ratio)” value is at most -4.2.
Take A17U G25C A29U G48C U53A G70U C93G C129A C131A A150C: the “polymerase ribozyme fitness (log ratio)” value was at most -4.2.
As for C18G A137G U145G, the “polymerase ribozyme fitness (log ratio)” value was -2.16.
Turning to C18U G88C C103A G112C G143C, the “polymerase ribozyme fitness (log ratio)” value was at most -4.2.
C18U A28C C87G G124U U139G U146G: the “polymerase ribozyme fitness (log ratio)” value was at most -4.2.
Turning to C18U U53A C85A C96A A137G, the “polymerase ribozyme fitness (log ratio)” value is at most -4.2.
Consider C18U A21C G42C C93U, for which the “polymerase ribozyme fitness (log ratio)” value is at most -4.2.
Regarding C18G U55A A98G A106G G112U A120U, the “polymerase ribozyme fitness (log ratio)” value was -3.87.
Take C18A G86U C103U U145A: the “polymerase ribozyme fitness (log ratio)” value was -2.81.
As for A17U G94A, the “polymerase ribozyme fitness (log ratio)” value is -1.24.
For A19C A60G C96U, the “polymerase ribozyme fitness (log ratio)” value was 0.412.
To A19C A24U C57G C75U G92U C118A belongs -0.536; to A17U C79G C87U U144G, at most -4.2; to C18U G25C C43G C99A, at most -4.2.
For the variant C18U A121U, the “polymerase ribozyme fitness (log ratio)” value is -1.1.
For C18U C76A U127G A137C, the “polymerase ribozyme fitness (log ratio)” value is at most -4.2.
To A17U C85A belongs -1.17.
Turning to C18U C32U A37C C54A C69A G70U A97U A138C C149A, the “polymerase ribozyme fitness (log ratio)” value is at most -4.2.
For A19C G94C U102G, the “polymerase ribozyme fitness (log ratio)” value is at most -4.2.
Then C18G A19G A20U C57U G68C G141A, with at most -4.2; and C18G A19U G62C C85U C116A, with -1.81.
Then A19C A52U, with -1.43; and A19C A41G C131A A138U, with at most -4.2; and A17U C87G, with -3.75.
As to A19C C43U C76A G81C A91G A106U A121C G136U A142G, the “polymerase ribozyme fitness (log ratio)” value was at most -4.2.
A19C U53G C85U G92A C103A G141C: the “polymerase ribozyme fitness (log ratio)” value is at most -4.2.
As for C18U A23U A26U A30U C87U C96G C108U G136A, the “polymerase ribozyme fitness (log ratio)” value was at most -4.2.
Turning to C18U G84A A113G C114U, the “polymerase ribozyme fitness (log ratio)” value is -2.6.
As for A17U C93A, the “polymerase ribozyme fitness (log ratio)” value was -2.74.
Regarding A17U G50A C87G G141A, the “polymerase ribozyme fitness (log ratio)” value is at most -4.2.
As to C18A C69G C96U C103A, the “polymerase ribozyme fitness (log ratio)” value is -2.88.
Then C18U U44A G46U A64G U77A A110C G140C U148A, with at most -4.2.
Turning to C18G A28U A66U G94U C95A, the “polymerase ribozyme fitness (log ratio)” value was at most -4.2.
Consider C18U C87U G94C C123A G141A, for which the “polymerase ribozyme fitness (log ratio)” value is at most -4.2.
With C18G G80U C116U, the “polymerase ribozyme fitness (log ratio)” value was -1.62.
With A17U U55A G84C C95G U148A, the “polymerase ribozyme fitness (log ratio)” value was -3.23.
Regarding C18U A40G C57G C95U, the “polymerase ribozyme fitness (log ratio)” value was -3.91.
A17U C116U: the “polymerase ribozyme fitness (log ratio)” value was -0.46.
For the variant C18U G86A G140A, the “polymerase ribozyme fitness (log ratio)” value is at most -4.2.
Regarding C18G A52U U82A, the “polymerase ribozyme fitness (log ratio)” value was -3.02.
With C18A A20G G46C U56C G94C C105G A122U, the “polymerase ribozyme fitness (log ratio)” value was -0.89.
For the variant A17U G94C C95U C105U, the “polymerase ribozyme fitness (log ratio)” value is -0.248.
Then A17U C96G A142U U146A, with -2.11; and A19C A41G G59U A91C A107G A120U, with at most -4.2.
For A19C G92U, the “polymerase ribozyme fitness (log ratio)” value turned out to be 0.745.
Regarding A19C G92A, the “polymerase ribozyme fitness (log ratio)” value is -2.38.
Consider C18U A28U C38A A47C C85A U145C, for which the “polymerase ribozyme fitness (log ratio)” value is at most -4.2.
In the case of A19C C36U G59U A60G C93U U104G, the “polymerase ribozyme fitness (log ratio)” value is -3.23.
As to C18U A20G C76A U77A G92U U101A U134G, the “polymerase ribozyme fitness (log ratio)” value is at most -4.2.
Consider C18U A37U G83A C87U U90G A98C C116A G133U A137C, for which the “polymerase ribozyme fitness (log ratio)” value was at most -4.2.
On to A19C C27A C125U U148G, for which the “polymerase ribozyme fitness (log ratio)” value is at most -4.2.
With A19C G65A G83C, the “polymerase ribozyme fitness (log ratio)” value is -1.84.
For A17U C85U U104G, the “polymerase ribozyme fitness (log ratio)” value was -1.01.
To A17U C57A G83C C99G belongs at most -4.2; to C18G A26U C35U U78A C99G U135C A147C, at most -4.2; to C18G C96U, -1.12.
As for C18U C76A C95U C99A U101G A107U C149G, the “polymerase ribozyme fitness (log ratio)” value is at most -4.2.
Then A19C A20G G136A A147G, with -2.36; and A19C A30G C87U G128C G136U, with at most -4.2.
